Assay results: patent publication US20130115220A1, “METHOD FOR PREVENTION OR TREATMENT OF METABOLIC SYNDROME” (DAINIPPON SUMITOMO PHARMA CO., LTD., priority 2010, published 2013)

Test system: 3T3-L1 preadipocytes
Test: Differentiation of 3T3-L1 preadipocytes into mature adipocytes, lipid droplet formation by oil-red-O
Type: cell-based
Conditions: human rAIM used for AIM loading
Description: To examine the function of AIM produced by macrophage that infiltrated into adipose tissue on the surrounding adipocytes, an experiment was performed to load AIM in the culture process for differentiation of 3T3-L1 preadipocytes into mature adipocytes.
As AIM, recombinant AIM protein (rAIM) of mouse was used. rAIM was prepared by culturing human-derived HEK293T cells transfected with a vector expressing mouse AIM (pCAGGS-mAIM-HA plasmid) in a serum-free medium (FreeStyle™ 293 Expression Medium; Invitrogen). rAIM was purified from the culture supernatant thereof using an anti-HA antibody column. In other Reference Examples shown below, AIM used was a similar rAIM protein. AIM was loaded by adding AIM to a culture medium at a concentration of 5 μg/ml.
In addition, differentiation of 3T3-L1 cells was induced as shown in FIG. 13 by first proliferating 3T3-L1 cells by cultivating for 4 days (day(−2)-day 2), after which cultivating in a culture medium containing insulin, dexamethasone (DEX) and isobutylmethylxanthine (IBMX) for 2 days (day 2-day 4) to start differentiation induction stimulation, and further cultivating in a culture medium containing insulin for 2 days (day 4-day 6).
After the differentiation induction stimulation period (day 2-day 6), the cells were continuously cultured in a culture medium free of such differentiation induction stimulation factors. Then, the cells on day 10 day from the start of the differentiation induction stimulation (day 12) were stained with oil-red-O, and the state of differentiation of 3T3-L1 cells into mature adipocytes was observed.

B1: human rAIM: human AIM protein labeled with HA-tag produced in HEK293T cells (protein)
chain: SPSGVRLVGGLHRCEGRVEVEQKGQWGTVCDDGWDIKDVAVLCRELGCGAASGTPSGILYEPPAEKEQKVLIQSVSCTGTEDTLAQCEQEEVYDCSHDEDAGASCENPESSFSPVPEGVRLADGPGHCKGRVEVKHQNQWYTVCQTGWSLRAAKVVCRQLGCGRAVLTQKRCNKHAYGRKPIWLSQMSCSGREATLQDCPSGPWGKNTCNHDEDTWVECEDPFDLRLVGGDNLCSGRLEVLHKGVWGSVCDDNWGEKEDQVVCKQLGCGKSLSPSFRDRKCYGPGVGRIWLDNVRCSGEEQSLEQCQHRFWGFHDCTHQEDVAVICSG
modifications: left off: small tags and cut ends
notes: human AIM protein labeled with HA-tag produced in HEK293T cells
- differentiation of mouse-derived 3T3-L1 cells: similarly suppressed
